Test results taken from patent US20190270818A1 (Eli Lilly, published 2019).

How the values were obtained:
[1] = target: T1, Cynomolgus monkey PD1-extracellular domain (ECD)-His (cynomolgus monkey); test: SPR, Biacore 8K, 25° C., mAb captured on protein A, PD1-ECD-His as analyte, n=1
T1 construct: Expressed in CHO cells, purified by IMAC and size exclusion; also called cynomolgus monkey PD-1 ECD; cynomolgus PD1-ECD-his
T1 chain: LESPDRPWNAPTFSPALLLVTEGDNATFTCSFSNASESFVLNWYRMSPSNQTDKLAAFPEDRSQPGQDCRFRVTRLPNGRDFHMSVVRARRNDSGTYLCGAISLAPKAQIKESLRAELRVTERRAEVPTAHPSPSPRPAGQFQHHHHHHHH
Procedure: (§1) The binding kinetics of an anti-human PD-1 agonist antibody of the invention to human and cynolmolgus monkey PD-1 ECDs may be determined by use of a surface plasmon resonance biosensor such as BIAcore® 2000, BIAcore® 3000, BIAcore® 8K, or a BIAcore® T100 (GE Healthcare, Piscataway, N.J.). Briefly described, a BIAcore® 8K instrument is used to measure the binding kinetics for Antibody 1 to human and cynomolgus monkey PD1-extracellular domain (ECD)-His via surface plasmon resonance (SPR) at 25° C. Samples are dissolved in 1×HBS-EP+ running buffer (Teknova cat. # H8022) and a protein A coupled CMS Series S sensor chip (GE Healthcare Cat #29139131-AA) is utilized to capture mAb. Human and cynomolgus monkey PD1-ECD proteins which contain a C-terminal 8× histidine tag are expressed in CHO cells and purified by nickel charged IMAC followed by size exclusion.
(§2) Binding is evaluated using multiple analytical cycles. Each cycle is performed at 25° C. at a flow rate of 10 μl/minute for mAb capture and 30 μl/minute for ligand association and dissociation. Each cycle consists of the following steps: injection of mAb at 2 μg/ml for 60 s contact time targeting a capture level of approximately 220RUs on flow cell 2, injection of 150 seconds of human or cynomolgus PD1-ECD-his (concentration range of 400 nM to 1.6 nM by four fold serial dilution) followed by 600 second dissociation phase, and regeneration using 10 mM glycine hydrochloride, pH 1.5 over a 30 second contact time. Association (i.e., Kon) and dissociation rates (i.e., Koff) for each cycle are evaluated using standard double referencing and fit to “1:1 (Langmuir) binding” model in the Biacore 8K evaluation in parallel kinetics batch mode. The affinity (KD) is calculated from the binding kinetics according to the relationship KD=Koff/Kon.

[2] = target: T2, Human PD1-extracellular domain (ECD)-His (human, UniProt Q15116 25-167); test: as above
T2 construct: Expressed in CHO cells, purified by IMAC and size exclusion; also called human PD-1 ECD; human PD1-ECD-his
Procedure: as §1, §2

[3] = target: T2, Human PD1-extracellular domain (ECD)-His; test: SPR, Biacore T200, 37° C., mAb captured, PD1-ECD-His as analyte, mean ± SD, n=9; 37° C. (n=9)
Procedure: (§3) In subsequent experiments, Biacore was used to measure the binding kinetics for Antibody 1 to human and cynomolgus monkey PD1-extracellular domain (ECD)-His via surface plasmon resonance (SPR) at 37° C. by BIAcore® T200. For analyses at 37° C., binding is evaluated using multiple analytical cycles. Each cycle is performed at 37° C. at a flow rate of 10 μl/minute for mAb capture and 100 μl/minute for ligand association and dissociation. Each cycle consists of the following steps: injection of mAb at 2.5 μg/ml targeting a capture level of approximately 220RUs on flow cell 2, injection of 180 seconds of human or cynomolgus PD1-ECD-his (concentration range of […] to 1.6 nM by 2-fold serial dilution) followed by 600 second dissociation phase, and regeneration using 10 mM glycine hydrochloride, pH 1.5 over a 30 second contact time. Kon, Koff, and KD are calculated essentially as described above. Affinity data is reported as average and standard deviations determined from triplicate measurements in three independent experiments (mean±SD, n=9).

[4] = target: T3, Human PD-1 (cell membrane expressed) (human, UniProt Q15116 25-288); test: flow cytometry on CHO cells expressing human PD-1, GMFI, 4-parameter fit, average
T3 construct: no cleavage site is stated; also called hPD-1; CD279
Description: (§4) The ability of the anti-human PD-1 agonist antibodies disclosed herein to bind to cell surface human or cynomolgus monkey PD-1 can be measured using a flow cytometric assay. Human and cynomolgus monkey PD-1 (i.e., as shown in SEQ ID NOs: 13 and 15, respectively) expressing stable cells are generated by transfecting human or cynomolgus monkey PD-1 plasmid DNA into Chinese Hamster Ovary cells (CHO-kl; Lonza) using an electroporation system (Gene Pulser Xcell; BioRad) according to established protocols. Stable cells are selected from single isolated cells using 500 μg/mL G418 (Thermo Scientific) in culture medium. For flow cytometry, the cells are transferred into a 96-well V-bottom plate at density of 1×10⁵ cells/well. The cells are washed with 1×FACS buffer (Becton Dickinson #554656). Antibody 1, or control human IgG1 (diluted in FACS buffer in a three-fold 12-point titration of the antibodies, starting at 100 micrograms/mL) are added (in 100 microliters) and cells are incubated at 4° C. for 30 minutes.
(§5) After washing twice in FACS buffer, live/dead cell staining is performed using SytoxBlue (Invitrogen, #S34857) per manufacturer's protocol. […] Flow cytometry data is analyzed using FlowJo software. Geometric Mean Fluorescence Intensity (GMFI) values are used to calculate relative EC₅₀ based on 4-parameter logistic regression.

[5] = target: T3, Human PD-1 (cell membrane expressed); test: cell-based or functional assay
[6] = target: T1, Cynomolgus monkey PD1-extracellular …; test: SPR, Biacore T200, 37° C., mAb captured, PD1-ECD-His as analyte, mean ± SD, n=9
Procedure: as §3

[7] = target: T2, Human PD1-extracellular domain (ECD)-His; test: as above
Procedure: as §3

[8] = target: T4, Cynomolgus monkey PD-1 (cell membrane expressed) (cynomolgus monkey, UniProt Q15116 25-288 (human entry)); test: flow cytometry on CHO cells expressing cynomolgus monkey PD-1, GMFI, 4-parameter fit, average
T4 construct: Stably expressed on CHO-K1 cells; no cleavage site is stated; also called cyno PD-1; cynomolgus PD-1
T4 chain: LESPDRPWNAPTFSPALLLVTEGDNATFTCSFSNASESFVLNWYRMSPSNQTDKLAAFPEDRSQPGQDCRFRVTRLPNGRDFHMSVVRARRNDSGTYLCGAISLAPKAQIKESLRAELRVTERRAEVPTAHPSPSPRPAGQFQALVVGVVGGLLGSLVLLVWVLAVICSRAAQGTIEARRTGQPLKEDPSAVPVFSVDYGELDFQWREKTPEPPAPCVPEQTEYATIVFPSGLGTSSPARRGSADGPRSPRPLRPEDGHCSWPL
Description: as §4, §5

T3 sequence (Q15116 25-288 limits assumed): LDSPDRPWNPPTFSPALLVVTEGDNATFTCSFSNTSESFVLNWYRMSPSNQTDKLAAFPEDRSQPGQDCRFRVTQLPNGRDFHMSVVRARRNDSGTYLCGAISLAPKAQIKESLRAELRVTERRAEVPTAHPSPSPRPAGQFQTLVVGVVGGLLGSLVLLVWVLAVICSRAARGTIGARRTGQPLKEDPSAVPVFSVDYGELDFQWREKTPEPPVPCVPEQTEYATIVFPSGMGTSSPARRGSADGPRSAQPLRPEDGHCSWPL

Kd [1]: 4.7 nM
koff [1]: 0.0011 s⁻¹
kon [1]: 240000 M⁻¹ s⁻¹
Kd [2]: 1 nM
koff [2]: 0.00017 s⁻¹
kon [2]: 170000 M⁻¹ s⁻¹
kon [3]: 307000 M⁻¹ s⁻¹
EC50 [4]: 1.3 µg/mL
inhibition of human PD-1 NFAT-luciferase reporter cell activity (IC50) [5]: 0.0752 µg/mL
Kd [6]: 9.51 nM
koff [6]: 0.00489 s⁻¹
kon [6]: 519000 M⁻¹ s⁻¹
Kd [7]: 2.29 nM
koff [7]: 0.000701 s⁻¹
EC50 [8]: 1.09 µg/mL
B1: Antibody 1 (antibody, human IgG1, kappa, V domains shown)
VH: QVQLVQSGAEVKKPGASVKVSCKVSGYSLSKYDMSWVRQAPGKGLEWMGIIYTSGYTDYAQKFQGRVTMTEDTSTDTAYMELSSLRSEDTAVYYCATGNPYYTNGFNSWGQGTLVTVSS
VL: DIQMTQSPSSLSASVGDRVTITCQASQSPNNLLAWYQQKPGKAPKLLIYGASDLPSGVPSRFSGSGSGTDFTLTISSLQPEDFATYYCQNNYYVGPVSYAFGGGTKVEIKR
notes: Humanized IgG1 with kappa light chain; also called anti-human PD-1 agonist antibody; anti-human PD-1 agonist IgG1 antibody
